# Data from patent US20180003631A1.
# T1: rNav1.2a/Kv2.1 VSD IV paddle chimera (WT paddle) (rat), P15387
# T1 chain: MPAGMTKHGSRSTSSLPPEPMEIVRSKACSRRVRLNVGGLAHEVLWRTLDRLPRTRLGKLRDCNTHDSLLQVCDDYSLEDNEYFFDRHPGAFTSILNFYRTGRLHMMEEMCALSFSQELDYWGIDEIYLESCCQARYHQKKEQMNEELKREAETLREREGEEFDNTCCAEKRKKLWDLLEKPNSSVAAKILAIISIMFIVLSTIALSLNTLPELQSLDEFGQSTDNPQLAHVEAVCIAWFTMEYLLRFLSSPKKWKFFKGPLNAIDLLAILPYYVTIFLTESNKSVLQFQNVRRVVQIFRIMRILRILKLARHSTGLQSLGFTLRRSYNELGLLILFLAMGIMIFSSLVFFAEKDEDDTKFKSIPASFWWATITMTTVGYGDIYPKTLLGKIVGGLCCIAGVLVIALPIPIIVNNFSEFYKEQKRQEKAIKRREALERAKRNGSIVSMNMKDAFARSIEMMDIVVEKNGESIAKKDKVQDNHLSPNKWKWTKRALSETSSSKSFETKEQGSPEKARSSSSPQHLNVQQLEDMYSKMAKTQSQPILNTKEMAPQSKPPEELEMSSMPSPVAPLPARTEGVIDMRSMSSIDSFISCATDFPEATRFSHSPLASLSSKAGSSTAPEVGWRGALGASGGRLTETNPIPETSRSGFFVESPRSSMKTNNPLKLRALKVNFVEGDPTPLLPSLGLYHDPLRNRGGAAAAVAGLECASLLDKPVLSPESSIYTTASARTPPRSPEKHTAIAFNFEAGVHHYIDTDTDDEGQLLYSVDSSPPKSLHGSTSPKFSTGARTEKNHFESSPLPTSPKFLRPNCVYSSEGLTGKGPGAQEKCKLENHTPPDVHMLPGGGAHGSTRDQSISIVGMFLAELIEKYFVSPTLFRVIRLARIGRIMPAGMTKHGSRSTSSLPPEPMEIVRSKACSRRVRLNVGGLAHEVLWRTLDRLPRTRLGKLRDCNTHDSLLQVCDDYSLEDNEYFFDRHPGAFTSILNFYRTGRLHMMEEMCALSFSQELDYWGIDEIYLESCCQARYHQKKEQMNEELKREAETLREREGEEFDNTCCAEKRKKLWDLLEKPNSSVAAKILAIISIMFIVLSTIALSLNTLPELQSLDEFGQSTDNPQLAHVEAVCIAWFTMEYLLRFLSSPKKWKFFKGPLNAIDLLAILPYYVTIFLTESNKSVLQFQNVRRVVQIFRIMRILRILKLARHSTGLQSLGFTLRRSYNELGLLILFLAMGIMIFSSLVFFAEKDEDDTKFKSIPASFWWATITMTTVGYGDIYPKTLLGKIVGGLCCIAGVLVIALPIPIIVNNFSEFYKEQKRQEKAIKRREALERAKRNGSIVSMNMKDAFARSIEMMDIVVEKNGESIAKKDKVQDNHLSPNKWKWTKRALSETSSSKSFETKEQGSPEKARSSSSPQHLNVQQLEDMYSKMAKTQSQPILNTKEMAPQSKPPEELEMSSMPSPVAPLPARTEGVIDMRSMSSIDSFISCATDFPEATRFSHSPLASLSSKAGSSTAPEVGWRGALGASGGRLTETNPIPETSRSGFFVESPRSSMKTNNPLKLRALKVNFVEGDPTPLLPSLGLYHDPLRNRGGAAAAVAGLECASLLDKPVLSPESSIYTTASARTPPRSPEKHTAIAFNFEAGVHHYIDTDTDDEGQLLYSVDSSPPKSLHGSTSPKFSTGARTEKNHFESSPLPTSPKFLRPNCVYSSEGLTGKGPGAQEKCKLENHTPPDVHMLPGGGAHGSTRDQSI
# B1: AaHII from Androctonus australis hector, P01484 20-83 (peptide)
# chain: VKDGYIVDDVNCTYFCGRNAYCNEECTKLKGESGYCQWASPYGNACYCYKLPDHVRTKGPGRCH
# modifications: not checked
# Tests used:
# [1] = target: T1, rNav1.2a/Kv2.1 VSD IV paddle chimera …; assay: cell-based or functional assay
# [2] = target: rNav1.2a/Kv2.1 VSD IV chimera containing the R1629A/L1630A substitutions (rat), P15387; assay: cell-based or functional assay
# [3] = target: T2, isolated rNav1.2a VSD IV paddle peptide with R1629A/L1630A substitutions and C-terminal K-linked biotin (rat); assay: SPR (Biacore T200), heterogeneous ligand model, site 2, n=3, mean±SD; site 2, lower affinity KD2, n=3
# [4] = target: T2, isolated rNav1.2a VSD IV paddle peptide …; assay: site 2 of heterogeneous ligand model (ka2)
# [5] = target: T2, isolated rNav1.2a VSD IV paddle peptide …; assay: site 1 of heterogeneous ligand model (kd1)
# [6] = target: T2, isolated rNav1.2a VSD IV paddle peptide …; assay: site 1 of heterogeneous ligand model (ka1)
# [7] = target: T2, isolated rNav1.2a VSD IV paddle peptide …; assay: SPR (Biacore T200), heterogeneous ligand model, site 2
# [8] = target: T2, isolated rNav1.2a VSD IV paddle peptide …; assay: SPR (Biacore T200), heterogeneous ligand model, site 1, n=3, mean±SD; site 1, high affinity KD1, n=3
# [9] = target: T2, isolated rNav1.2a VSD IV paddle peptide …; assay: site 2 of heterogeneous ligand model (kd2)
# [10] = target: T2, isolated rNav1.2a VSD IV paddle peptide …; assay: SPR (Biacore T200), heterogeneous ligand model, site 1
binder,measurement,setting,value
B1,"apparent KD (from K+ current inhibition, two-electrode voltage clamp, Xenopus oocytes)",[1],1.01 µM
same,"apparent KD (from K+ current inhibition, two-electrode voltage clamp, Xenopus oocytes)",[2],0.193 µM
same,Kd,[3],0.747 µM
same,kon,[4],38200 M⁻¹ s⁻¹
same,koff,[5],0.000979 s⁻¹
same,kon,[6],2330 M⁻¹ s⁻¹
same,RUmax2,[7],23 RU
same,Kd,[8],0.479 µM
same,koff,[9],0.0281 s⁻¹
same,RUmax1,[10],135 RU
